Experimental data taken from publication PMC4168798 (ACS Chemical Biology, 2014).

T1: Bcl-w (c-myc-tagged, without the C-terminal trans-membrane region) (human)
T1 chain: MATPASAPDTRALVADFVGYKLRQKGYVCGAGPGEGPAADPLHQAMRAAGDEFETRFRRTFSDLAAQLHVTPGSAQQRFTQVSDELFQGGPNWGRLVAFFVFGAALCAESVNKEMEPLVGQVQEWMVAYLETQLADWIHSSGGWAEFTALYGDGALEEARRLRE

T2: Bfl-1 (c-myc-tagged, without the C-terminal trans-membrane region) (human)
T2 sequence (Q16548 whole entry, looked up): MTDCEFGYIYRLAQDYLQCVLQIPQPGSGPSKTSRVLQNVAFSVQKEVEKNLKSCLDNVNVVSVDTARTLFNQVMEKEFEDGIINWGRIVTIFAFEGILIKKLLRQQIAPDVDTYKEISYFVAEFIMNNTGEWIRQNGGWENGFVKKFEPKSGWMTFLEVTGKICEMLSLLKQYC

B1: Kaposi sarcoma herpesvirus Bcl-2 (domain or fragment)
chain: MDEDVLPGEVLAIEGIFMACGLNEPEYLYHPLLSPIKLYITGLMRDKESLFEAMLANVRFHSTTGINQLGLSMLQVSGDGNMNWGRALAILTFGSFVAQKLSNEPHLRDFALAVLPVYAYEAIGPQWFRARGGWRGLKAYCTQVLTRRRGRR

Legend:
Test in all cases: fluorescence polarisation
[1] = target: T1, Bcl-w (c-myc-tagged, without the …)
[2] = target: B1
[3] = target: Mcl-1 (c-myc-tagged, without the N-terminal domain and the C-terminal trans-membrane region) (human)
Chain of Mcl-1 (c-myc-tagged, without the N-terminal domain and the C-terminal trans-membrane region) (human) (Q07820 whole entry, the tested form may be a part): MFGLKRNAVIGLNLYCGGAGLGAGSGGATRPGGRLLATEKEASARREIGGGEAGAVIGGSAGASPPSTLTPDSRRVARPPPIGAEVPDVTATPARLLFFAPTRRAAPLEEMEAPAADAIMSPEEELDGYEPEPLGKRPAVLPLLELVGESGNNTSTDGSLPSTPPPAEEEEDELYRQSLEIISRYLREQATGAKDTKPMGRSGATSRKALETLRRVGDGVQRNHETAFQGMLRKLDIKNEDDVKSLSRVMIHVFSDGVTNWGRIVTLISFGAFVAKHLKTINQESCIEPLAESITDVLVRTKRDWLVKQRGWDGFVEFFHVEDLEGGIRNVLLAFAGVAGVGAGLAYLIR

[4] = target: T2, Bfl-1 (c-myc-tagged, without the …)
[5] = target: Bcl-xL (c-myc-tagged, without the C-terminal trans-membrane region) (human)
Chain of Bcl-xL (c-myc-tagged, without the C-terminal trans-membrane region) (human) (Q07817 whole entry): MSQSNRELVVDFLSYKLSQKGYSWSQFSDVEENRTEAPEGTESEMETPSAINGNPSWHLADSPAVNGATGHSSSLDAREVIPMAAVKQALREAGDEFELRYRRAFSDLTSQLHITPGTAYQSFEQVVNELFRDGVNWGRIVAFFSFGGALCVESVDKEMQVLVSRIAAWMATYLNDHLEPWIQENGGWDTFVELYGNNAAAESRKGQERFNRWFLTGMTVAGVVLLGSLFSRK

[6] = target: Bcl-2 (c-myc-tagged, without the C-terminal trans-membrane region) (human)
[7] = target: Bim_A2eT_I3dL, N-terminal fluorescein (N-terminal 5/6-fluorescein amidite; C-terminal amidation)

## {5/6‑fluorescein amidite}-RPEIWLGQSLQRLGDEINAYYAR-NH2 (designed binder) [B3, N-terminal fluorescein]
[1]
  Kd: 16 nM
[2]
  Kd: 1.43 nM
[3]
  Kd: < 1 nM
[4]
  Kd: 26 nM
[5]
  Kd: 4.2 nM
[6]
  Kd: 35 nM

## {5/6‑fluorescein amidite}-RPEIWLTQHLQRLGDEINAYYAR-NH2 (designed binder) [MS3, N-terminal fluorescein]
[1]
  Kd: 340 nM
[4]
  Kd: 790 nM
[6]
  Kd: > 3000 nM

## {5/6‑fluorescein amidite}-RPEIWLTQSLQRLGDEINAYYAR-NH2 (designed binder) [MS2, N-terminal fluorescein]
[2]
  Kd: < 1 nM

## {5/6‑fluorescein amidite}-RPEIWMTQGLRRLGDEINAYYAR-NH2 (designed binder) [MS1, N-terminal fluorescein]
[2]
  Kd: 2.9 nM

## {5/6‑fluorescein amidite}-RPEIWMGQGLRRLGDEINAYYAR-NH2 (designed binder) [A12, N-terminal fluorescein]
[1]
  Kd: 210 nM
[2]
  Kd: 4 nM
[3]
  Kd: 2.4 nM
[4]
  Kd: 22 nM
[5]
  Kd: 9.8 nM
[6]
  Kd: 42 nM

## B1
[7]
  Kd: 1 nM
